1 molecule from patent publication US20090226421A1 (Genmab, published 2009) can be followed below.

This experiment has as its target T1, human C1q (human, UniProt P02745 23-245; P02746 28-253; P02747 29-245).
T1 construct: also called first component of the classical complement cascade
Description: ELISA, antibody coated, C1q detected with rabbit anti-human C1q. As to the method:
In short, microtiter ELISA plates (Greiner, Germany) were coated overnight at RT with the test antibodies serially diluted from 10 μg/ml to 0.06 μg/ml in PBS. Plates were emptied and wells were blocked with 200 μl ELISA-diluent per well (0.1 M NaPO₄, 0.1 M NaCl, 0.1% gelatin and 0.05% Tween-20), at RT for 30 minutes. […] After washing the plates (3×) with PBST, wells were incubated with HRP-conjugated swine anti-rabbit IgG-Fc (DAKO, P0300, lot #069) diluted in ELISA diluent (1:2500, 100 μl/well, RT, 1 hour). Thereafter, plates were washed thrice and assays were developed with freshly prepared 1 mg/ml ABTS solution (ABTS: 2,2′-azino-bis[3-ethylbenzthiazoline-6-sulfonic acid]); 2 tablets of 5 mg in 10 ml ABTS buffer, Boehringer Mannheim, Ingelheim, Germany) at RT in the dark for 30 minutes. Absorbance was measured at 405 nm in an ELISA plate reader (Biotek Instruments Inc., Winooski, USA).

T1 sequence (P02745 23-245, chain 1 of 3): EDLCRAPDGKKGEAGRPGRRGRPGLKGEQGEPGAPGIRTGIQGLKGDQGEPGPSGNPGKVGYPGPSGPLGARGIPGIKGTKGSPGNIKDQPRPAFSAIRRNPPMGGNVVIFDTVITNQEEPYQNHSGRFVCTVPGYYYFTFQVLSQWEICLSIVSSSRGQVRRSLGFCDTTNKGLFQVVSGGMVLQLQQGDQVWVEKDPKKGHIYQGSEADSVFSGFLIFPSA
T1 sequence (P02746 28-253, chain 2 of 3): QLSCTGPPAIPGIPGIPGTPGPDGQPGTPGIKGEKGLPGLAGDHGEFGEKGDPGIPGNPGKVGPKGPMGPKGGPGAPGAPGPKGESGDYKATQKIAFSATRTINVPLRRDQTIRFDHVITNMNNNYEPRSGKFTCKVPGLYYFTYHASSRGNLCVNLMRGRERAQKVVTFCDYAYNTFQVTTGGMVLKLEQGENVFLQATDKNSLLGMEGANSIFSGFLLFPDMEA
T1 sequence (P02747 29-245, chain 3 of 3): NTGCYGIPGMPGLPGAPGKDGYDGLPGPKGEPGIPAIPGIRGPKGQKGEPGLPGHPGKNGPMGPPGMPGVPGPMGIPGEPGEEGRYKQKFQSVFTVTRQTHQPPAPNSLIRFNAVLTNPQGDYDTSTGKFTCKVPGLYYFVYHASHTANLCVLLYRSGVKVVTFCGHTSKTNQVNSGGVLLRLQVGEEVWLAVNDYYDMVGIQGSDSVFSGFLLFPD

B1: 7D8-HG (antibody)
heavy: EVQLVESGGGLVQPDRSLRLSCAASGFTFHDYAMHWVRQAPGKGLEWVSTISWNSGTIGYADSVKGRFTISRDNAKNSLYLQMNSLRAEDTALYYCAKDIQYGNYYYGMDVWGQGTTVTVSSASTKGPSVFPLAPCSRSTSESTAALGCLVKDYFPEPVTVSWNSGALTSGVHTFPAVLQSSGLYSLSSVVTVPSSSLGTKTYTCNVDHKPSNTKVDKRVAPEFLGGPSVFLFPPKPKDTLMISRTPEVTCVVVDVSQEDPEVQFNWYVDGVEVHNAKTKPREEQFNSTYRVVSVLTVLHQDWLNGKEYKCKVSNKGLPSSIEKTISKAKGQPREPQVYTLPPSQEEMTKNQVSLTCLVKGFYPSDIAVEWESNGQPENNYKTTPPVLDSDGSFFLYSRLTVDKSRWQEGNVFSCSVMHEALHNHYTQKSLSLSLGK
light: not shown
notes: Half-molecule of one heavy and one light chain (SDS-PAGE, MS 71520 Da); also called HuMab 7D8-HG; hingeless IgG4 anti-CD20
With B1, the binding result is reported as “no binding”.
